Experiment [1] concerns the target T1, Ext4 PD-L1-GFP, a PD-L1 mutant with residues 284-290 deleted (Homo sapiens, UniProt Q9NZQ7, residues 284–290 deleted).
T1 construct: The label 'Ext4' is probably a slip for 'Int4'; source: HEK293 cells, expressed, on cells
The experiment in a line: immunostaining of cells or tissue; confocal immunofluorescence microscopy of HEK293 cells expressing PD-L1-GFP constructs, stained with r22C3 and r28-8; protocol in Supplementary Appendix B. To be noted: one partner purified.

The target of experiment [2] is T2, His-tagged extracellular domain of PD-L1 (residues 19-238) (Homo sapiens (Human)., UniProt Q9NZQ7, N-linked glycosylation (sites N35, N192, N200, N219)).
T2 construct: programmed cell death ligand-1 (PD-L1), human, extracellular domain, residues 19-238 of the 290-residue protein; The limits are stated for the SPR experiment; also called PD-L1 extracellular domain; recombinant PD-L1; source: provided by MedImmune, Cambridge, UK; purified
The experiment in a line: SPR; Biacore T200, 25 °C, PBS pH 7.4 with 0.05% Tween-20; 90 RU r22C3 captured, PD-L1 extracellular domain injected at 110 nM, then r28-8 injected over the r22C3-PD-L1 complex (top 33 nM, two-fold dilutions); 1:1 Langmuir model. As to conditions: both partners purified. (Surface plasmon resonance follows binding to a sensor surface in real time, without labels.)

The target in experiment [3] is T2, His-tagged extracellular domain of …. The experiment in a line: SPR; Biacore T200, 25 °C, PBS (10 mM sodium phosphate, 154 mM NaCl, pH 7.4) with 0.05% Tween-20; 90 RU r22C3 captured on anti-mouse antibody on a C1 chip; PD-L1 extracellular domain injected (top 110 nM, two-fold dilutions); 1:1 Langmuir model. As to conditions: both partners purified.

The source of these data is PMC8075905, “Mapping the binding sites of antibodies utilized in programmed cell death ligand-1 predictive immunohistochemical assays for use with immuno-oncology therapies” (Modern Pathology, 2019).

T1 sequence (Q9NZQ7 19-283, stated change not applied): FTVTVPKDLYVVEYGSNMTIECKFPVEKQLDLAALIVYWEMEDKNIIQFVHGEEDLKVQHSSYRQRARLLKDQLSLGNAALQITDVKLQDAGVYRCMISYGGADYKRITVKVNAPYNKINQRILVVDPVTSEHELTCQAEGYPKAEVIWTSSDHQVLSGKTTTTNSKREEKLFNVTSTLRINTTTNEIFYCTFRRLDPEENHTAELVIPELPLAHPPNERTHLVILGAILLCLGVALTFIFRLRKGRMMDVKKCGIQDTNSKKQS
T2 sequence (Q9NZQ7 19-238): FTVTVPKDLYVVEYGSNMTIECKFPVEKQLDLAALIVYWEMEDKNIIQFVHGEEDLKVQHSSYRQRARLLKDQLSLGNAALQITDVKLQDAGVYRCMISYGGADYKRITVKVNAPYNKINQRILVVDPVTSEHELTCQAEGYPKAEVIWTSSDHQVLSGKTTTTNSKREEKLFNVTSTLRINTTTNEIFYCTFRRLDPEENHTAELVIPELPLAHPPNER

B1: recombinant 28-8 antibody (r28-8), rabbit IgG (antibody, V domains shown)
VH: CLSVEESGGRLVTPGTPLTLTCTASGFTITNYHMFWVRQAPGKGLEWIGVITSSGIGSSSTTYYATWAKGRFTISKTSTTVNLRITSPTTEDTATYFCARDYFTNTYYALDIWGPGTLVTVSS
VL: ALVMTQTPSSTSTAVGGTVTIKCQASQSISVYLAWYQQKPGQPPKLLIYSASTLASGVPSRFKGSRSGTEYTLTISGVQREDAATYYCLGSAGSFGGGTEVVVK
notes: Rabbit IgG; source: CHO-EBNA-GS cells, transient expression, purified
As a reminder, the Kd is the concentration at which binding is half-saturated. Read a low Kd as higher affinity. B1: in experiment [1], the binding result is recorded as “binds”. Also, the Kd in experiment [2] was below 0.04 nM.

B2: recombinant 22C3 antibody (r22C3), mouse IgG (antibody, V domains shown)
VH: QVHLQQSGAELAKPGASVKMSCKASGYTFTSYWIHWIKQRPGQGLEWIGYINPSSGYHEYNQKFIDKATLTADRSSSTAYMHLTSLTSEDSAVYYCARSGWLIHGDYYFDFWGQGTTLVTVS
VL: DIVMSQSPSSLAVSAGEKVTMTCKSSQSLLHTSTRKNYLAWYQQKPGQSPKLLIYWASTRESGVPDRFTGSGSGTDFTLTISSVQAEDLAVYYCKQSYDVVTFGAGTKLEIK
notes: Mouse IgG; source: CHO-EBNA-GS cells, transient expression, purified
In the case of B2, the binding result in experiment [1] is recorded as “binds”. Besides, the Kd in experiment [3] was below 0.04 nM.
